pKd: −log10 of the molar value.

One experiment has as its target HLA-A*01:01. Put plainly: IEDB peptide-MHC binding, purified MHC/direct/fluorescence; filed as Kd, often an IC50 or EC50 that approximates it; ≥ and ≤ were set here for values at or beyond the usual limits of such assays.
The target in the next experiment is HLA-A*80:01. The experiment is described as above.
The target in experiment [1] is HLA-B*18:01. Put plainly: IEDB peptide-MHC binding, purified MHC/competitive/fluorescence; filed as Kd, often an IC50 or EC50 that approximates it; ≥ and ≤ were set here for values at or beyond the usual limits of such assays. To be noted: source organism: Vibrio vulnificus YJ016.
The next experiment addresses HLA-A*02:06. Described as above. The following applies: source organism: Vibrio vulnificus YJ016.
The target of experiment [2] is HLA-A*02:01. Described as above. To be noted: source organism: Vibrio vulnificus YJ016.
The target in experiment [3] is HLA-B*08:01. The description is as above. The following applies: source organism: Vibrio vulnificus YJ016.
Another experiment addresses HLA-A*30:01. Described as above. To be noted: source organism: Vibrio vulnificus YJ016.
The target in experiment [4] is HLA-A*69:01. Described as above. To be noted: source organism: Vibrio vulnificus YJ016.
Another experiment concerns the target HLA-B*39:01. The experiment is described as above. To be noted: source organism: Vibrio vulnificus YJ016.
A further experiment deals with HLA-B*40:01. Kind of experiment: IEDB peptide-MHC binding, purified MHC/direct/fluorescence; filed as Kd, often an IC50 or EC50 that approximates it; ≥ and ≤ were set here for values at or beyond the usual limits of such assays.
A further experiment addresses HLA-B*48:01. Described as above. To be noted: source organism: Vibrio vulnificus YJ016.
The target of a further experiment is HLA-B*58:01. The description is as above.
The next experiment concerns the target HLA-A*26:01. The description is as above.
Another experiment concerns the target HLA-B*15:09. The experiment is described as above. The following applies: source organism: Vibrio vulnificus YJ016.
The target of a further experiment is HLA-B*57:01. Described as above. To be noted: source organism: Vibrio vulnificus YJ016.
A further experiment addresses HLA-A*03:01. The experiment is described as above.
The next experiment deals with HLA-B*46:01. Described as above.
The target of a further experiment is HLA-B*15:17. The description is as above. To be noted: source organism: Vibrio vulnificus YJ016.
In a further experiment the target is HLA-A*11:01. The description is as above.
Another experiment addresses HLA-B*27:05. The experiment is described as above.
For another experiment, the target named is HLA-A*31:01. The description is as above.
The target of a further experiment is HLA-B*38:01. Described as above. The following applies: source organism: Vibrio vulnificus YJ016.
The target of the next experiment is HLA-B*15:01. The description is as above.
The target in another experiment is HLA-A*02:50. Put plainly: IEDB peptide-MHC binding, purified MHC/competitive/fluorescence; filed as Kd, often an IC50 or EC50 that approximates it; ≥ and ≤ were set here for values at or beyond the usual limits of such assays. To be noted: source organism: Shigella boydii CDC 3083-94.
Experiment [5] addresses HLA-B*18:01. Put plainly: IEDB peptide-MHC binding, purified MHC/direct/fluorescence; filed as Kd, often an IC50 or EC50 that approximates it; ≥ and ≤ were set here for values at or beyond the usual limits of such assays.
For the next experiment, the target named is HLA-B*07:02. Described as above.
Experiment [6] concerns the target HLA-A*02:01. Described as above.
For experiment [7], the target named is HLA-A*69:01. The description is as above.
In a further experiment the target is HLA-B*44:02. Described as above. To be noted: source organism: Escherichia coli O157:H7.
For experiment [8], the target named is HLA-A*24:02. The experiment is described as above.
For a further experiment, the target named is HLA-C*07:02. The experiment is described as above. To be noted: source organism: Hantaan virus 76-118.
The target of another experiment is HLA-A*02:11. Described as above. To be noted: source organism: Amur virus Solovey/AP63/1999.
A further experiment concerns the target HLA-A*02:12. The experiment is described as above. To be noted: source organism: Amur virus Solovey/AP63/1999.
Another experiment concerns the target HLA-C*04:01. The description is as above.
Experiment [9] addresses HLA-B*08:01. The experiment is described as above. The following applies: source organism: Influenza A virus (A/Switzerland/8808/2002(H1N1)).
Another experiment has as its target HLA-B*08:02. The experiment is described as above. The following applies: source organism: Influenza A virus H3N2.
Experiment [10] addresses HLA-A*24:02. Kind of experiment: IEDB peptide-MHC binding, purified MHC/competitive/fluorescence; filed as Kd, often an IC50 or EC50 that approximates it; ≥ and ≤ were set here for values at or beyond the usual limits of such assays. To be noted: source organism: Shigella flexneri 5 str. 8401.
[11] abbreviates: source organism: Burkholderia mallei.
The mark [12] stands for this setting: source organism: Vibrio vulnificus YJ016.
The mark [13] stands for this setting: source organism: Escherichia coli O157:H7.
Where [14] appears, read: source organism: Francisella tularensis subsp. holarctica LVS.
[15] abbreviates: source organism: Influenza A virus (A/Switzerland/8808/2002(H1N1)).

The term pKd denotes the Kd on a negative log10 scale, so that one unit is a factor of ten. A low value points to a high Kd. For ALRRRTGTR, the pKd with HLA-A*01:01 (setting [11]) and in the experiment with HLA-A*80:01 (setting [11]) was not above 4.70 each time.

Regarding EPADHLAIM, the pKd is 5.52 with HLA-B*18:01 [1]; not above 4.70 with HLA-A*02:06; 6.16 with HLA-A*02:01 [2]; not above 4.70 with HLA-B*08:01 [3]; not above 4.70 with HLA-A*30:01; not above 4.70 with HLA-A*69:01 [4]. Further, the negative logarithm of the Kd (pKd) was 5.92 with HLA-B*39:01; not above 4.70 with HLA-B*40:01 (setting [12]); not above 4.70 with HLA-B*48:01; not above 4.70 with HLA-B*58:01 (setting [12]); 7.33 with HLA-A*26:01 (setting [12]); not above 4.70 with HLA-B*15:09. For the same sequence, the pKd with HLA-B*57:01, with HLA-A*03:01 (setting [12]), with HLA-B*46:01 (setting [12]), with HLA-A*01:01 (setting [12]), with HLA-B*15:17 and with HLA-A*11:01 (setting [12]) was not above 4.70 in each case. The pKd in the experiment with HLA-B*27:05 (setting [12]), with HLA-A*31:01 (setting [12]), in the experiment with HLA-B*38:01 and in the experiment with HLA-B*15:01 (setting [12]) was not above 4.70 throughout.

GMAEDLQSL: the negative-log Kd (pKd) with HLA-A*02:50 was not below 10.00; in the experiment with HLA-B*40:01 (setting [13]) it was not above 4.70; with HLA-B*18:01 [5] (setting [13]), not above 4.70; in the experiment with HLA-B*58:01 (setting [13]) it was not above 4.70; with HLA-B*07:02 (setting [13]), not above 4.70; with HLA-A*03:01 (setting [13]), not above 4.70. The negative logarithm of the Kd (pKd) with HLA-A*02:01 [6] (setting [13]) is 7.18; in the experiment with HLA-A*01:01 (setting [13]) it was not above 4.70; with HLA-A*11:01 (setting [13]), not above 4.70; in the experiment with HLA-A*69:01 [7] (setting [13]), 6.00; with HLA-B*27:05 (setting [13]), not above 4.70; in the experiment with HLA-B*44:02, not above 4.70. Besides, the pKd with HLA-A*24:02 [8] (setting [13]) is not above 4.70; with HLA-A*31:01 (setting [13]), not above 4.70; with HLA-B*15:01 (setting [13]) it was 6.41.

As for LTDKSGSEY, the figures for the pKd in the experiment with HLA-A*01:01 (setting [14]) and with HLA-A*80:01 (setting [14]) were 8.92 and 6.54, respectively.

For SMLSYGNVL, the pKd with HLA-C*07:02 is 6.21; in the experiment with HLA-A*02:11, 8.52; with HLA-A*02:01 [6] (source organism: Amur virus), not below 9.00; with HLA-A*02:12, 7.12.

In the experiment with HLA-C*04:01 (source organism: human gammaherpesvirus 4), STEFIPNLF had a pKd not above 4.70.

On to VPAQNAIST, for which the pKd was not above 4.70 in the experiment with HLA-B*40:01 (setting [15]); not above 4.70 in the experiment with HLA-B*18:01 [5] (setting [15]); not above 4.70 with HLA-B*58:01 (setting [15]); not above 4.70 in the experiment with HLA-A*26:01 (source organism: Influenza A virus H3N2); 7.20 in the experiment with HLA-B*07:02 (source organism: Influenza A virus (A/Puerto Rico/8/34/Mount Sinai(H1N1))); not above 4.70 in the experiment with HLA-A*03:01 (setting [15]). Moreover, the pKd in the experiment with HLA-A*02:01 [6] (setting [15]), with HLA-B*46:01 (setting [15]), with HLA-A*01:01 (setting [15]), with HLA-B*08:01 [9], in the experiment with HLA-A*11:01 (setting [15]) and in the experiment with HLA-A*69:01 [7] (setting [15]) was not above 4.70 throughout. Besides, the pKd in the experiment with HLA-B*08:02, with HLA-B*27:05 (setting [15]), in the experiment with HLA-A*24:02 [8] (setting [15]), with HLA-A*31:01 (setting [15]) and with HLA-B*15:01 (setting [15]) was not above 4.70 throughout.

VSITNPFLF: the pKd with HLA-A*24:02 [10] is 8.24; with HLA-C*04:01 (source organism: Shigella flexneri 5 str. 8401) it was not above 4.70.

Source of the values: the Immune Epitope Database (IEDB).
